Laboratory results reported in paper PMC7261184, “Human REXO2 controls short mitochondrial RNAs generated by mtRNA processing and decay machinery to prevent accumulation of double-stranded RNA” (Nucleic Acids Research, 2020).

Target: the molecule itself
Assay: SEC-MALS; gel filtration coupled with multi-angle light scattering

B1: REXO2, N-terminal-truncated (Δ28aa), wild type (enzyme, human, UniProt Q9Y3B8 29-237, looked up)
chain: GGAAMAAGESMAQRMVWVDLEMTGLDIEKDQIIEMACLITDSDLNILAEGPNLIIKQPDELLDSMSDWCKEHHGKSGLTKAVKESTITLQQAEYEFLSFVRQQTPPGLCPLAGNSVHEDKKFLDKYMPQFMKHLHYRIIDVSTVKELCRRWYPEEYEFAPKKAASHRALDDISESIKELQFYRNNIFKKKIDEKKRKIIENGENEKTVS
notes: human REXO2 (oligoribonuclease, mitochondrial), lacking the N-terminal 28 residues (Δ28aa); Crystallised with an RNA oligonucleotide and Ca2+; also called WT; wild-type REXO2; not shown: 6x His-SUMO, N-terminal, cleaved
stoichiometry N: 2
